{"source": "patent US20260235581A1", "about": "“METHOD FOR THE SELECTION OF AN ECOBIOLOGICAL COMPOUND CAPABLE OF INCREASING THE SKIN TOLERANCE THRESHOLD” (NAOS INSTITUTE OF LIFE SCIENCE, priority 2023, published 2026)", "molecules": {"B1": {"name": "EGF: epidermal growth factor protein, AF-100-15, Peprotech (protein, UniProt P01133 23-1207, looked up)", "Pro-epidermal growth factor": "PQHWSCPEGTLAGNGNSTCVGPAPFLIFSHGNSIFRIDTEGTNYEQLVVDAGVSVIMDFHYNEKRIYWVDLERQLLQRVFLNGSRQERVCNIEKNVSGMAINWINEEVIWSNQQEGIITVTDMKGNNSHILLSALKYPANVAVDPVERFIFWSSEVAGSLYRADLDGVGVKALLETSEKITAVSLDVLDKRLFWIQYNREGSNSLICSCDYDGGSVHISKHPTQHNLFAMSLFGDRIFYSTWKMKTIWIANKHTGKDMVRINLHSSFVPLGELKVVHPLAQPKAEDDTWEPEQKLCKLRKGNCSSTVCGQDLQSHLCMCAEGYALSRDRKYCEDVNECAFWNHGCTLGCKNTPGSYYCTCPVGFVLLPDGKRCHQLVSCPRNVSECSHDCVLTSEGPLCFCPEGSVLERDGKTCSGCSSPDNGGCSQLCVPLSPVSWECDCFPGYDLQLDEKSCAASGPQPFLLFANSQDIRHMHFDGTDYGTLLSQQMGMVYALDHDPVENKIYFAHTALKWIERANMDGSQRERLIEEGVDVPEGLAVDWIGRRFYWTDRGKSLIGRSDLNGKRSKIITKENISQPRGIAVHPMAKRLFWTDTGINPRIESSSLQGLGRLVIASSDLIWPSGITIDFLTDKLYWCDAKQSVIEMANLDGSKRRRLTQNDVGHPFAVAVFEDYVWFSDWAMPSVMRVNKRTGKDRVRLQGSMLKPSSLVVVHPLAKPGADPCLYQNGGCEHICKKRLGTAWCSCREGFMKASDGKTCLALDGHQLLAGGEVDLKNQVTPLDILSKTRVSEDNITESQHMLVAEIMVSDQDDCAPVGCSMYARCISEGEDATCQCLKGFAGDGKLCSDIDECEMGVPVCPPASSKCINTEGGYVCRCSEGYQGDGIHCLDIDECQLGEHSCGENASCTNTEGGYTCMCAGRLSEPGLICPDSTPPPHLREDDHHYSVRNSDSECPLSHDGYCLHDGVCMYIEALDKYACNCVVGYIGERCQYRDLKWWELRHAGHGQQQKVIVVAVCVVVLVMLLLLSLWGAHYYRTQKLLSKNPKNPYEESSRDVRSRRPADTEDGMSSCPQPWFVVIKEHQDLKNGGQPVAGEDGQAADGSMQPTSWRQEPQLCGMGTEQGCWIPVSSDKGSCPQVMERSFHMPSYGTQTLEGGVEKPHSLLSANPLWQQRALDPPHQMELTQ", "modifications": "Pro-epidermal growth factor", "notes": "epidermal growth factor protein, AF-100-15, Peprotech"}}, "tested_on": "TAFA4", "assay": "TAFA4 synthesis in normal human keratinocyte culture supernatant, dot blot", "type": "cell-based", "conditions": "72 hours of incubation, EGF 30 ng/ml, versus KGM medium control set to 100%, statistically significant", "procedure": "Normal human keratinocytes (NHK) have been used in this study. They come from Promocell (Germany). The cells are seeded at 100,000 cells/well in the 24-well plates in KGM. After 24 hours, the cells are incubated with the compound shown in the table below in KBM+P/S medium at 37° C., 5% CO2.\nAfter 72 hours of incubation, the supernatants and protein extracts (obtained from the cell layer) were recovered and stored at −80° C.\nAfter 72 hours of incubation at 37° C., 5% CO2, the supernatants and protein extracts (obtained from the cell layer) are recovered and stored at −80° C.\nBefore assaying the TAFA4 protein, an evaluation of the toxicity of the compounds is performed using the MTT test. Only the concentrations making it possible to obtain a viability greater than 80% are selected to be quantified by ELISA and dot blot.\nThe results are expressed as a percentage of TAFA4 expression by standardising the control to 100% (KGM medium control). The data have been obtained from an independent experiment carried out in triplicate.", "data": [{"molecule": "B1", "values": [{"measurement": "effect on the synthesis of TAFA4 (modulation of TAFA4 in the NHK supernatant)", "value": "inhibits the synthesis of TAFA4"}]}]}
